Measurements as given in publication PMC5369529, “Substrate selectivity of an isolated enoyl reductase catalytic domain from an iterative highly reducing fungal polyketide synthase reveals key components of programming” (Chemical Science, 2016).

Key:
[1] = target: T1, isolated enoyl reductase (ER) domain of squalestatin tetraketide synthase (SQTKS) (Phoma sp. C2932, UniProt Q86ZD9); assay: inhibition of turnover of tigloyl pantetheine 5P; type: biochemical; settings: substrate 5P, NADPH; inhibitor, not reduced
T1 construct: gene pks1; isolated ER domain only, his6-tagged, from synthetic codon-optimised phpks1, expressed in E. coli; dimer; exact borders in ESI (model begins at G1886)
T1 sequence (Q86ZD9 1887-2207 limits assumed): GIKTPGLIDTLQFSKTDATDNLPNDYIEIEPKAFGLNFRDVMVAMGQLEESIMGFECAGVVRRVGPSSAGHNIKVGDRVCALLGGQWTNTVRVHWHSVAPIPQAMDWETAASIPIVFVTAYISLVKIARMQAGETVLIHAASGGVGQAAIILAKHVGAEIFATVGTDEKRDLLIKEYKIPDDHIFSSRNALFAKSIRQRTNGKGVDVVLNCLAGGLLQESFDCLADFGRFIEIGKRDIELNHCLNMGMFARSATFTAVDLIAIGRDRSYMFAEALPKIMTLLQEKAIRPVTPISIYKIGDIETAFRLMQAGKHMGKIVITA

[2] = substrate: C/C=C(/C)C(=O)SCCNC(=O)CCNC(=O)[C@H](O)C(C)(C)CO; assay: purified protein, by the assay type; design: continuous spectrophotometric assay, NADPH consumption at 340 nm, initial rates fitted to Michaelis-Menten; settings: 30.0 °C
[3] = substrate: C/C=C(\C)C(=O)SCCNC(=O)CCNC(=O)[C@H](O)C(C)(C)CO; assay: purified protein, by the assay type; design: continuous spectrophotometric assay, NADPH consumption at 340 nm, initial rates fitted to Michaelis-Menten; settings: 30.0 °C
[4] = substrate: C/C=C(\CC)C(=O)SCCNC(=O)CCNC(=O)[C@H](O)C(C)(C)CO; assay: purified protein, by the assay type; design: continuous spectrophotometric assay, NADPH consumption at 340 nm, initial rates fitted to Michaelis-Menten; settings: 30.0 °C
[5] = substrate: CC(C)CC/C=C/C(=O)SCCNC(=O)CCNC(=O)[C@H](O)C(C)(C)CO; assay: purified protein, by the assay type; design: continuous spectrophotometric assay, NADPH consumption at 340 nm, initial rates fitted to Michaelis-Menten; settings: 30.0 °C
[6] = substrate: CC(C)CCC/C=C/C(=O)SCCNC(=O)CCNC(=O)[C@H](O)C(C)(C)CO; assay: purified protein, by the assay type; design: continuous spectrophotometric assay, NADPH consumption at 340 nm, initial rates fitted to Michaelis-Menten; settings: 30.0 °C
[7] = substrate: CCC(C)/C=C/C(=O)SCCNC(=O)CCNC(=O)[C@H](O)C(C)(C)CO; assay: purified protein, by the assay type; design: continuous spectrophotometric assay, NADPH consumption at 340 nm, initial rates fitted to Michaelis-Menten; settings: 30.0 °C
[8] = substrate: CCC(C)CC(C)/C=C/C(=O)SCCNC(=O)CCNC(=O)[C@H](O)C(C)(C)CO; assay: purified protein, by the assay type; design: continuous spectrophotometric assay, NADPH consumption at 340 nm, initial rates fitted to Michaelis-Menten; settings: 30.0 °C
[9] = substrate: CCC/C=C(\C)C(=O)SCCNC(=O)CCNC(=O)[C@H](O)C(C)(C)CO; assay: purified protein, by the assay type; design: continuous spectrophotometric assay, NADPH consumption at 340 nm, initial rates fitted to Michaelis-Menten; settings: 30.0 °C
[10] = substrate: CCC/C=C(\CC)C(=O)SCCNC(=O)CCNC(=O)[C@H](O)C(C)(C)CO; assay: purified protein, by the assay type; design: continuous spectrophotometric assay, NADPH consumption at 340 nm, initial rates fitted to Michaelis-Menten; settings: 30.0 °C
[11] = substrate: CCC/C=C/C(=O)SCCNC(=O)CCNC(=O)[C@H](O)C(C)(C)CO; assay: purified protein, by the assay type; design: continuous spectrophotometric assay, NADPH consumption at 340 nm, initial rates fitted to Michaelis-Menten; settings: 30.0 °C
[12] = substrate: CCCC/C=C/C(=O)SCCNC(=O)CCNC(=O)[C@H](O)C(C)(C)CO; assay: purified protein, by the assay type; design: continuous spectrophotometric assay, NADPH consumption at 340 nm, initial rates fitted to Michaelis-Menten; settings: 30.0 °C
[13] = substrate: CCCCC/C=C/C(=O)SCCNC(=O)CCNC(=O)[C@H](O)C(C)(C)CO; assay: purified protein, by the assay type; design: continuous spectrophotometric assay, NADPH consumption at 340 nm, initial rates fitted to Michaelis-Menten; settings: 30.0 °C
[14] = substrate: CC[C@H](C)/C=C(\C)C(=O)SCCNC(=O)CCNC(=O)[C@H](O)C(C)(C)CO; assay: purified protein, by the assay type; design: continuous spectrophotometric assay, NADPH consumption at 340 nm, initial rates fitted to Michaelis-Menten; settings: 30.0 °C

Q: Which “inhibition of turnover of tigloyl pantetheine 5P” value [1] does the source give for CC[C@H](C)C[C@H](C)/C=C/C(=O)SCCNC(=O)CCNC(=O)[C@H](O)C(C)(C)CO [1P, squalestatin tetraketide pantetheine] here?
A: it does act as an inhibitor of the ER in vitro

B1: isolated enoyl reductase (ER) domain of squalestatin tetraketide synthase (SQTKS) (Phoma sp. C2932) (protein)
chain: T1 sequence (Q86ZD9 1887-2207 limits assumed)
notes: isolated ER domain only, his6-tagged, from synthetic codon-optimised phpks1, expressed in E. coli; dimer; exact borders in ESI (model begins at G1886)
Q: For B1, which Km [2] is on record?
A: 0.44 µM

Q: And the kcat [2]?
A: 11.4 s⁻¹

Q: What about the kcat/Km [2] of the same molecule?
A: 2.59e+07 M⁻¹ s⁻¹

Q: And the Km [3]?
A: 0.69 µM

Q: What about the kcat [3] of the same molecule?
A: 8.9 s⁻¹

Q: What about the kcat/Km [3] of the same molecule?
A: 1.29e+07 M⁻¹ s⁻¹

Q: What about the Km [4] of the same molecule?
A: 0.16 µM

Q: And the kcat [4]?
A: 2.58 s⁻¹

Q: And the kcat/Km [4]?
A: 1.61e+07 M⁻¹ s⁻¹

Q: And the Km [5]?
A: 0.52 µM

Q: What about the kcat [5] of the same molecule?
A: 5.6 s⁻¹

Q: What about the kcat/Km [5] of the same molecule?
A: 1.08e+07 M⁻¹ s⁻¹

Q: And the Km [6]?
A: 4.70 µM

Q: And the kcat [6]?
A: 0.85 s⁻¹

Q: What about the kcat/Km [6] of the same molecule?
A: 200000 M⁻¹ s⁻¹

Q: And the Km [7]?
A: 0.18 µM

Q: And the kcat [7]?
A: 5.9 s⁻¹

Q: And the kcat/Km [7]?
A: 3.28e+07 M⁻¹ s⁻¹

Q: What about the Km [8] of the same molecule?
A: 0.18 µM

Q: And the kcat [8]?
A: 2 s⁻¹

Q: What about the kcat/Km [8] of the same molecule?
A: 1.11e+07 M⁻¹ s⁻¹

Q: And the Km [9]?
A: 0.54 µM

Q: And the kcat [9]?
A: 415 s⁻¹

Q: And the kcat/Km [9]?
A: 7.68e+08 M⁻¹ s⁻¹

Q: And the Km [10]?
A: 0.19 µM

Q: And the kcat [10]?
A: 4.71 s⁻¹

Q: And the kcat/Km [10]?
A: 2.48e+07 M⁻¹ s⁻¹

Q: And the Km [11]?
A: 0.23 µM

Q: And the kcat [11]?
A: 25.9 s⁻¹

Q: And the kcat/Km [11]?
A: 1.13e+08 M⁻¹ s⁻¹

Q: What about the Km [12] of the same molecule?
A: 0.18 µM

Q: What about the kcat [12] of the same molecule?
A: 7.11 s⁻¹

Q: And the kcat/Km [12]?
A: 3.95e+07 M⁻¹ s⁻¹

Q: What about the Km [13] of the same molecule?
A: 0.6 µM

Q: And the kcat [13]?
A: 9 s⁻¹

Q: And the kcat/Km [13]?
A: 1.5e+07 M⁻¹ s⁻¹

Q: What about the Km [14] of the same molecule?
A: 0.41 µM

Q: What about the kcat [14] of the same molecule?
A: 48.8 s⁻¹

Q: What about the kcat/Km [14] of the same molecule?
A: 1.19e+08 M⁻¹ s⁻¹
